Test results taken from US20220016257A1 (Daiichi Sankyo, published 2022).

T1: human CDH6 (full-length, on cells) (human, UniProt P55285 54-790)
T1 construct: also called hCDH6; full-length hCDH6
T1 sequence: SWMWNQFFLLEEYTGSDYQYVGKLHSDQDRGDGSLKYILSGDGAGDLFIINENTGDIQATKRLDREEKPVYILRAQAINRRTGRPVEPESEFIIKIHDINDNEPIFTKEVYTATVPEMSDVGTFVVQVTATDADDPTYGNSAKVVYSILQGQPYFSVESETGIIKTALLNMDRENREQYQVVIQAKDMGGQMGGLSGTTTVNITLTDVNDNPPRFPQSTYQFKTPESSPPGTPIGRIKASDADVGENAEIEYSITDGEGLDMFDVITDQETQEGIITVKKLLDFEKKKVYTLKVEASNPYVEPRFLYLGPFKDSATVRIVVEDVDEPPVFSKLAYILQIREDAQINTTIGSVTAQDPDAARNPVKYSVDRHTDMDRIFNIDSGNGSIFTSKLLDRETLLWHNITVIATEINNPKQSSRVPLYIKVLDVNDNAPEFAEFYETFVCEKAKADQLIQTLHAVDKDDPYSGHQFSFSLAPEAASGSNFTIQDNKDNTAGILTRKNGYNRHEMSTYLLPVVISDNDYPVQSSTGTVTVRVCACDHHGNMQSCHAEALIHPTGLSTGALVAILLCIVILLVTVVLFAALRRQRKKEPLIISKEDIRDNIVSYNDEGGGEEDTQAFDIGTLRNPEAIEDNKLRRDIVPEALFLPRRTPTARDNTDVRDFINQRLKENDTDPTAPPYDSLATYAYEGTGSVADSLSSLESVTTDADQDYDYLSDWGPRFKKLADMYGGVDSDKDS

T2: cynomolgus monkey CDH6 (full-length, on cells) (cynomolgus monkey, UniProt P55285 54-790 (human entry))
T2 construct: Expressed from pcDNA3.1-cynoCDH6 on transfected cells; also called cynoCDH6
T2 sequence: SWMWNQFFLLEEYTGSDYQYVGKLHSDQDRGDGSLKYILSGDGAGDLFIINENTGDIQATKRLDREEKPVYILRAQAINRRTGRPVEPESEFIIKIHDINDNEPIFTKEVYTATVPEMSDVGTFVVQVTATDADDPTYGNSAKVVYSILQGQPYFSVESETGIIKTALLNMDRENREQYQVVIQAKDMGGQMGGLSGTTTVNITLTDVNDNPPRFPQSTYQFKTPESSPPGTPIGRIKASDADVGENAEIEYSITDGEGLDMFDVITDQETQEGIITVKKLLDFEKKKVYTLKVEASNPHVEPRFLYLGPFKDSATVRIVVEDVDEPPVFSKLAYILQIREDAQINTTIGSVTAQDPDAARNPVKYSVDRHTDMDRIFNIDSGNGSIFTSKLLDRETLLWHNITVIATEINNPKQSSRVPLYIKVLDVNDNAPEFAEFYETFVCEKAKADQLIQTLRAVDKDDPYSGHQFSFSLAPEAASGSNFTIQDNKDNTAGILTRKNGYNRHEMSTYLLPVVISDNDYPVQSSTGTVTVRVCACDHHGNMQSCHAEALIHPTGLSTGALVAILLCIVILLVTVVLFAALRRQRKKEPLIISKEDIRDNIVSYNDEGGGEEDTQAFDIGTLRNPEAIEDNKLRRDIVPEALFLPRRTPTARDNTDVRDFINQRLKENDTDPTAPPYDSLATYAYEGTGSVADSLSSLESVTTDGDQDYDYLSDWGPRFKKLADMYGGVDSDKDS

T3: Recombinant Human Cadherin-6 (KCAD)/Fc Chimera (RD-SYSTEMS) (human, UniProt P55285 54-615, limits assumed)
T3 construct: Captured by an anti-histidine antibody; also called human CDH6; the antigen; not shown: Fc portion (and the histidine tag implied by anti-histidine capture) of the bought chimera
T3 sequence: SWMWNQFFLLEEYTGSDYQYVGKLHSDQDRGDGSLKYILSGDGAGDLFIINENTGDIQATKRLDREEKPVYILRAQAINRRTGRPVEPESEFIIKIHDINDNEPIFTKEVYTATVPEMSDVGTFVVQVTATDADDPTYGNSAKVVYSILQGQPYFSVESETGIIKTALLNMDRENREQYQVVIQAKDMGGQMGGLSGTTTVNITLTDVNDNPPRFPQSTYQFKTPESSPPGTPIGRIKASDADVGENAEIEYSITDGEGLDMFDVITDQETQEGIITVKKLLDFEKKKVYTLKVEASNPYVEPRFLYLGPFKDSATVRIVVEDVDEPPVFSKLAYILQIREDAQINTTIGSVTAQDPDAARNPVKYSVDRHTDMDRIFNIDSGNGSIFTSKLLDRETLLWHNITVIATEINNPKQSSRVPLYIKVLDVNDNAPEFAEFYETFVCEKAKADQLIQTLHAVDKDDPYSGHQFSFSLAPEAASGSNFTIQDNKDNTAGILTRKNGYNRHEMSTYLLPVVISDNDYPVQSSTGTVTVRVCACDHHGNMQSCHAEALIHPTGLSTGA


Assays:
[1] = target: T1, human CDH6 (full-length, on cells); assay: flow cytometry, 293α cells transiently transfected with pcDNA3.1-hCDH6, PE anti-human IgG Fcγ F(ab')2, mean fluorescence intensity
Method: (§1) The CDH6-binding activity of the human chimeric anti-CDH6 antibody chG019 purified in 4)-2 was confirmed by flow cytometry. […] The cells were cultured overnight under conditions of 37° C. and 5% CO₂, treated with TrypLE Express (Thermo Fisher Scientific Inc.), and thereafter, a cell suspension was prepared. chG019 was added to the suspension of each of these cells. The cells were left standing at 4° C. for 1 hour. Thereafter, the cells were washed twice with PBS supplemented with 5% FBS, and then suspended by the addition of PE-labeled F(ab′)2 Fragment anti-human IgG, Fcγ antibody (Jackson ImmunoResearch Laboratories, Inc.) that had been 500-fold diluted with PBS supplemented with 5% FBS. The cells were left standing at 4° C. for 1 hour. The cells were washed twice with PBS supplemented with 5% FBS, and then re-suspended in PBS supplemented with 5% FBS, followed by detection using a flow cytometer (Canto II; BD Biosciences). The data was analyzed using FlowJo (TreeStar, Inc.). […] In FIG. 4, the abscissa depicts antibody concentration, and the ordinate depicts the amount of the antibody bound, based on mean fluorescence intensity.

[2] = target: T2, cynomolgus monkey CDH6 (full-length, on …); assay: flow cytometry, 293α cells transiently transfected with pcDNA3.1-cynoCDH6, PE anti-human IgG Fcγ F(ab')2, mean fluorescence intensity
Method: as §1

[3] = target: T3, Recombinant Human Cadherin-6 (KCAD)/Fc …; assay: SPR (Biacore T200), antigen captured by immobilized anti-histidine antibody, antibody as analyte, steady state affinity model
Method: The dissociation constant of a construct of each of H01L02A, H11L02A and H31L02A prepared in Example 7)-4 and human CDH6 was measured by using Biacore T200 (GE Healthcare Biosciences Corp.), according to a capture method, which comprises capturing the antigen as a ligand with Anti-histidine antibody immobilized by means of a His Capture Kit (manufactured by GE Healthcare Bioscience) and then measuring the dissociation constant using an antibody as an analyte. As the sensor chip, CM5 (manufactured by GE Healthcare Bioscience) was used. As the running buffer, buffer containing 20 mM Tris-HCl, 150 mM NaCl, 1 mM CaCl₂ and 0.05% Surfactant P20 (pH7.4), was used. On the chip, a 1 μg/mL Recombinant Human Cadherin-6 (KCAD)/Fc Chimera (RD-SYSTEMS) was added at a rate of 10 μL/minute for 60 seconds, and a dilution series solution (0.11 to 81 μg/mL) of the antibody prepared in Example 7)-4 was then added at a flow rate of 30 μl/min for 180 seconds. Subsequently, the dissociation phase was monitored for 180 seconds. As a regeneration solution, a Glycine 1.5 (GE Healthcare Bioscience made by the company) was added at a flow rate of 20 μl/min for 30 seconds. A Steady State Affinity model was used in data analysis, and the dissociation constant (KD) was calculated.

EC50 (read off the curve) [1] | EC50 (read off the curve) [2] | Kd [3] | Binder
~0.01 µg/mL | ~0.01 µg/mL |  | human chimeric anti-CDH6 antibody chG019 (antibody, human IgG1, Human IgG1/kappa constant regions; also called chimeric G019 antibody; chG019 antibody) heavy: not shown light: DIQMTQSPSLLSASVGDRVTLNCKASQNIYKNLAWYQQKLGEGPKLLIYDANTLQTGIPSRFSGSGSGSDFTLTISSLQPEDVATYFCQQYYSGWAFGGVTNLELKRAVAAPSVFIFPPSDEQLKSGTASVVCLLNNFYPREAKVQWKVDNALQSGNSQESVTEQDSKDSTYSLSSTLTLSKADYEKHKVYACEVTHQGLSSPVTKSFNRGEC
 |  | 2.8 nM | humanized anti-CDH6 antibody H01L02A (antibody, human IgG1, kappa, L234A L235A, hH01A heavy chain (hH01 with L234A/L235A, EU index; IgG1 LALA) and hL02 light chain; also called H01L02A antibody) heavy: not shown light: DIQMTQSPSSLSASVGDRVTITCKASQNIYKNLAWYQQKPGKAPKLLIYDANTLQTGVPSRFSGSGSGSDFTLTISSLQPEDFATYFCQQYYSGWAFGQGTKVEIKRTVAAPSVFIFPPSDEQLKSGTASVVCLLNNFYPREAKVQWKVDNALQSGNSQESVTEQDSKDSTYSLSSTLTLSKADYEKHKVYACEVTHQGLSSPVTKSFNRGEC
 |  | 11.1 nM | humanized anti-CDH6 antibody H31L02A (antibody, human IgG1, kappa, L234A L235A, V domains shown, hH31A heavy chain (hH01 with the 81st glutamine changed to serine and the 123rd phenylalanine to alanine, IgG1 LALA) and hL02 light chain; also called H31L02A antibody) VH: EVQLVQSGAEVKKPGASVKVSCKASGYTFTRNFMHWVRQAPGQGLEWMGWIYPGDGETEYASKFQGRVTITADTSTSTAYMELSSLRSEDTAVYYCARGVYGGAAGGYFDFWGQGTLVTVSS VL: DIQMTQSPSSLSASVGDRVTITCKASQNIYKNLAWYQQKPGKAPKLLIYDANTLQTGVPSRFSGSGSGSDFTLTISSLQPEDFATYFCQQYYSGWAFGQGTKVEIKR
 |  | 43.1 nM | humanized anti-CDH6 antibody H11L02A (antibody, human IgG1, kappa, L234A L235A, V domains shown, hH11A heavy chain (hH01 with the 71st tyrosine changed to alanine, IgG1 LALA) and hL02 light chain; also called H11L02A antibody) VH: EVQLVQSGAEVKKPGASVKVSCKASGYTFTRNFMHWVRQAPGQGLEWMGWIAPGDGETEYAQKFQGRVTITADTSTSTAYMELSSLRSEDTAVYYCARGVYGGFAGGYFDFWGQGTLVTVSS VL: DIQMTQSPSSLSASVGDRVTITCKASQNIYKNLAWYQQKPGKAPKLLIYDANTLQTGVPSRFSGSGSGSDFTLTISSLQPEDFATYFCQQYYSGWAFGQGTKVEIKR
